The results in this text go back to patent US20240075158A1 (JIANGSU HENGRUI PHARMACEUTICAL, published 2024).

In test [1] the target is human IL-4R overexpressed on glioblastoma cells (LN229-IL4R, U87-IL4R, U251-IL4R) (human) (UniProt P24394). The test is described as follows: flow cytometry, U251-IL4R cells, 6.666667 ug/mL. Background: A flow cytometer gives signals particle by particle.
Test [2] has the same target. The test is described as follows: flow cytometry, U87-IL4R cells, 0.246914 ug/mL.
For test [3] the target is unchanged. The test is described as follows: flow cytometry, U251-IL4R cells, 0.027435 ug/mL.
For test [4] the target is unchanged. The test is described as follows: cell-based or functional assay.
The target is the same in test [5]. The test is described as follows: flow cytometry, LN229-IL4R cells, 0.740741 ug/mL.
Test [6] has the same target. The test is described as follows: flow cytometry, U87-IL4R cells, 0.027435 ug/mL.
The target is the same in test [7]. The test is described as follows: flow cytometry, U87-IL4R cells, 2.222222 ug/mL.
The target is the same in test [8]. The test is described as follows: flow cytometry, LN229-IL4R cells, 0.246914 ug/mL.
Test [9] shares this target. The test is described as follows: flow cytometry, U87-IL4R cells, 20 ug/mL.
Test [10] has the same target. The test is described as follows: flow cytometry, U251-IL4R cells, 0.740741 ug/mL.
The target of test [11] is rhIL-4R-Fc (ILR-H5253, Acro) (human) (UniProt P24394). The test is described as follows: SPR Biacore 8K, rhIL-4R-Fc captured by anti-human IgG on CM5, immunotoxin as analyte. A general note: Surface plasmon resonance follows binding to a sensor surface in real time, without labels.
Test [12] addresses human IL-4R overexpressed on glioblastoma cells (LN229-IL4R, U87-IL4R, U251-IL4R) (human) (UniProt P24394). The test is described as follows: flow cytometry, U87-IL4R cells, 0.082305 ug/mL.
For test [13] the target is unchanged. The test is described as follows: flow cytometry, LN229-IL4R cells, 0.082305 ug/mL.
Test [14] shares this target. The test is described as follows: flow cytometry, LN229-IL4R cells, 20 ug/mL.
Test [15] has the same target. The test is described as follows: flow cytometry, U87-IL4R cells, 0.740741 ug/mL.
For test [16] the target is unchanged. The test is described as follows: flow cytometry, U251-IL4R cells, 0.082305 ug/mL.
For test [17] the target is unchanged. The test is described as follows: flow cytometry, U251-IL4R cells, 2.222222 ug/mL.
For test [18] the target is unchanged. The test is described as follows: flow cytometry, U251-IL4R cells, 20 ug/mL.
For test [19] the target is unchanged. The test is described as follows: flow cytometry, LN229-IL4R cells, 2.222222 ug/mL.
For test [20] the target is unchanged. The test is described as follows: flow cytometry, LN229-IL4R cells, 6.666667 ug/mL.
Test [21] has the same target. The test is described as follows: flow cytometry, U251-IL4R cells, 0.246914 ug/mL.
For test [22] the target is unchanged. The test is described as follows: flow cytometry, U87-IL4R cells, 6.666667 ug/mL.
Test [23] shares this target. The test is described as follows: flow cytometry, LN229-IL4R cells, 0.027435 ug/mL.
Test [24] concerns the target T1, rhIL-4R-Fc (ILR-H5253, Acro) (human, UniProt P24394 26-232).
T1 sequence: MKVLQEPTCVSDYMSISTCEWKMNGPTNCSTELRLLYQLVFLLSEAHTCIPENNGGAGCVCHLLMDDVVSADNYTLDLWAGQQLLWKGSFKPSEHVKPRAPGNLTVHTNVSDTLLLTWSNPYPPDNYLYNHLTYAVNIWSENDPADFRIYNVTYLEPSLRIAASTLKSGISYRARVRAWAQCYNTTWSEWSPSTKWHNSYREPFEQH

Turning to MDNA55 (ligand), the Mean MFI was 17500 MFI in test [1]; 17100 MFI in test [2]; 3180 MFI in test [3]; 16200 MFI in test [5]; 9120 MFI in test [6]; 25300 MFI in [7]. The Mean MFI in test [8] came out at 12400 MFI; in test [9] it was 32700 MFI; in [10], 10700 MFI; in [12], 12000 MFI; in test [13], 8310 MFI; in [14], 24300 MFI. In addition, the Mean MFI in test [15] came to 21600 MFI; in test [16], 5860 MFI; in test [17] it was 13700 MFI; in test [18], 22600 MFI; in test [19], 19400 MFI; in [20], 21100 MFI. The values for the Mean MFI in test [21], in [22] and in test [23] were 8130 MFI, 29700 MFI and 4470 MFI, respectively. This molecule also gave an in vitro killing (CTG cell viability), LN229-IL4R cells in [4] of 80%. In [11], the Kd (in general, a measure of binding affinity in units of concentration) amounted to 0.439 nM. Besides, in test [11], the dissociation rate constant (koff) (usually a measure of how fast the partners let go of each other) worked out at 0.0029 s⁻¹. Also, the kon (as a rule, a measure of how fast the partners come together) in [11] came out at 6.62e+06 M⁻¹ s⁻¹.

Consider hIgG1 isotype control (antibody), for which the Mean MFI in test [1] stood at 288 MFI; in [2] it was 322 MFI; in [3], 263 MFI; in test [5] it was 286 MFI; in [6], 588 MFI; in test [7], 334 MFI. Further, the Mean MFI in test [8] was 300 MFI; in [9], 318 MFI; in test [10] it was 284 MFI; in test [12], 394 MFI; in test [13] it was 318 MFI; in [14], 231 MFI. The Mean MFI in [15] was determined as 339 MFI; in test [16], 274 MFI; in test [17], 282 MFI; in [18] it was 275 MFI; in [19] it was 361 MFI; in [20] it was 244 MFI. The figures for the Mean MFI in test [21], in test [22] and in test [23] were 287 MFI, 306 MFI and 352 MFI, respectively.

B1: 25G7-(scdsFv)-PE38KDEL (scFv)
scFv: EVQLVESGGGLVQPGGSLRLSCAASGFTFSDYGMHWVRQAPGKCLEWVAFISSGSSIIYYADIVKGRSTISRDNAKNTLYLQMNSLRAEDTAVYYCTRGNKRGFFDYWGQGTLVTVSSGGGGSGGGGSGGGGSEIVLTQSPATLSLSPGERATLSCRASSSVPYMYWYQQKPGQAPRLLIYLTSNLASGIPARFSGSGSGTDFTLTISSLEPEDFAVYYCQQWRAYPPMLTFGCGTKVEIKASGGPEEGGSLAALTAHQACHLPLETFTRHRQPRGWEQLEQCGYPVQRLVALYLAARLSWNQVDQVIRNALASPGSGGDLGEAIREQPEQARLALTLAAAESERFVRQGTGNDEAGAANGPADSGDALLERNYPTGAEFLGDGGDVSFSTRGTQNWTVERLLQAHRQLEERGYVFVGYHGTFLEAAQSIVFGGVRARSQDLDAIWRGFYIAGDPALAYGYAQDQEPDARGRIRNGALLRVYVPRSSLPGFYRTSLTLAAPEAAGEVERLIGHPLPLRLDAITGPEEEGGRLETILGWPLAERTVVIPSAIPTDPRNVGGDLDPSSIPDKEQAISALPDYASQPGKPPKDEL
On to B1, for which, in test [24], the Kd was determined as 0.101 nM, the koff turned out to be 0.000279 s⁻¹ and the kon came to 2.77e+06 M⁻¹ s⁻¹.
